Here are results for two molecules from patent US20160000930A1 (University of Texas, published 2016).

Experiment [1] has as its target T1, recombinant bacterially-purified mouse ΔDCN (His6-tagged, amino acids 45-354 of mouse DCN) (mouse, UniProt P28654 45-354).
T1 construct: Expressed in bacteria, so not glycosylated; also called delta-DCN; His6-ΔDCN
T1 sequence: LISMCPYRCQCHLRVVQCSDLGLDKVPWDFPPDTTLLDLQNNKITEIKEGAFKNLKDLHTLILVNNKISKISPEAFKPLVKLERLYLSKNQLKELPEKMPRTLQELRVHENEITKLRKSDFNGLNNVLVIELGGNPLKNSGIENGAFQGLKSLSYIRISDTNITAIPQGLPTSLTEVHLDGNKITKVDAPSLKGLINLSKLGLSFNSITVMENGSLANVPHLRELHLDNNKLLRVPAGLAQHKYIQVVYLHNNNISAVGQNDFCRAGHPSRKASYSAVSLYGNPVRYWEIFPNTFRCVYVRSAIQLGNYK
Description: ELISA, DCN forms coated, FLAG-resistin detected with anti-FLAG (FIG. 6D); reference: full-length DCN (mDCN). Here is the method: (§1) For bacterial expression, full-length mouse core DCN and ΔDCN isoforms were produced by cloning fragments encoding amino acids 1-354 and 45-354 of mouse DCN cDNA (OriGene) or of CLIC4 cDNA (OriGene) in-frame with the His₆Tag into pET28a vector, respectively. His₆-tagged proteins were purified with His-Tag kit (Novagen). For ELISA binding assays, 100 μl of 10 μg/ml of indicated His₆-DCN preparations, His₆-CLIC4 (control His₆-protein), NS0 cell-expressed mouse DCN (R&D Systems), purified bovine DCN (Sigma-Aldrich), or BSA were coated and immobilized onto Maxisorb Immunoplates (96 well; NUNC) overnight at 4° C., followed by blocking with 3% BSA, and then incubating with 100 μl of indicated concentrations of WAT7 or control WAT2 peptides. For adipokines binding assay, FLAG-tagged mouse resistin produced in HEK293 cells (Enzo Life Sciences), or control FLAG-BAP protein (Sigma-Aldrich) were incubated at the concentrations indicated. Bound peptides or FLAG-resistin were probed with corresponding rabbit anti-peptide Genemed antibodies (1:2,000) or rabbit anti-FLAG antibodies (Sigma-Aldrich, 1:2,000) followed by secondary goat anti-rabbit HRP-conjugated antibodies (Millipore, 1:5,000) and signal detection with Ultra-TMB (Pierce) substrate and measurement of absorbance at 450 nm. […]

Experiment [2] deals with T2, glycosylated bovine DCN (purified, Sigma-Aldrich) (bovine, UniProt P21793 31-360, glycosylated (GAG chain)).
T2 construct: also called bDCN*
T2 sequence (P21793 31-360 limits assumed): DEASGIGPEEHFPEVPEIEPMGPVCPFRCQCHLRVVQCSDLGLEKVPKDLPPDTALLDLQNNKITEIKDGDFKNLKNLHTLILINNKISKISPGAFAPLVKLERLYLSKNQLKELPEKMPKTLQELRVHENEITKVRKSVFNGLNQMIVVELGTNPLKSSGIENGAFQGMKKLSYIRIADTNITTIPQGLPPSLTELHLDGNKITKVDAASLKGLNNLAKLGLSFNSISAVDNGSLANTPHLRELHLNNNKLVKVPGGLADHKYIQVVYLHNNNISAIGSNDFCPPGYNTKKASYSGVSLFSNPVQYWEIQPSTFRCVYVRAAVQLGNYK
Description: ELISA, protein coated, FLAG-resistin detected with anti-FLAG (FIG. 6D).
Excerpt: as §1, with “Signal was detected by Odyssey imaging system using anti-goat IRDye 800CW or anti-rabbit IRDye 680 both from Licor Biosciences. Bovine DCN was from Sigma-Aldrich, NS0-derived murine DCN was from R&D Systems. Murine DCN cDNA was generated from WAT total RNA using SuperScript kit (Invitrogen). For bacterial” for “For bacterial”, “WAT2 peptides. […] Bound peptides” for “WAT2 peptides. For adipokines binding assay, FLAG-tagged mouse resistin produced in HEK293 cells (Enzo Life Sciences), or control FLAG-BAP protein (Sigma-Aldrich) were incubated at the concentrations indicated. Bound peptides”

The target in experiment [3] is T3, bovine serum albumin (bovine, UniProt P02769 25-607).
T3 construct: Background control in ELISA; also called BSA
T3 sequence (P02769 25-607 limits assumed): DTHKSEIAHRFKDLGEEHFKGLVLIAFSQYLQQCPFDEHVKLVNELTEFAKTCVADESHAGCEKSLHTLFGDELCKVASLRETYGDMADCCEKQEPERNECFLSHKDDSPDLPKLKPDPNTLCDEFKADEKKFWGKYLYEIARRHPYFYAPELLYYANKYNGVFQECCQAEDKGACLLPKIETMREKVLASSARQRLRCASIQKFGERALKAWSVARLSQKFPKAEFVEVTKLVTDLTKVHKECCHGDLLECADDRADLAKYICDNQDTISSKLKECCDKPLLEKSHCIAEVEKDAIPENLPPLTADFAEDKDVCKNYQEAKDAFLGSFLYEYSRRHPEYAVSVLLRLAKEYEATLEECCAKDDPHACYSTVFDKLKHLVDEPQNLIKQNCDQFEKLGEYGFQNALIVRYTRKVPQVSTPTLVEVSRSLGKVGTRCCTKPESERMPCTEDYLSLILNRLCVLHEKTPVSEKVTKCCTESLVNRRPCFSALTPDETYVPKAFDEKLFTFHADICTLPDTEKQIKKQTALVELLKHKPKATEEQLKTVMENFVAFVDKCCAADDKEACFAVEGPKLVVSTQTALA
The experiment in a line: ELISA, BSA coated as background control (FIG. 6D).
Excerpt: as §1, with “Signal was detected by Odyssey imaging system using anti-goat IRDye 800CW or anti-rabbit IRDye 680 both from Licor Biosciences. Bovine DCN was from Sigma-Aldrich, NS0-derived murine DCN was from R&D Systems. Murine DCN cDNA was generated from WAT total RNA using SuperScript kit (Invitrogen). For bacterial” for “For bacterial”, “WAT2 peptides. […] Bound peptides” for “WAT2 peptides. For adipokines binding assay, FLAG-tagged mouse resistin produced in HEK293 cells (Enzo Life Sciences), or control FLAG-BAP protein (Sigma-Aldrich) were incubated at the concentrations indicated. Bound peptides”

In experiment [4] the target is T3, bovine serum albumin. Description: ELISA, BSA coated as background control.
Excerpt: as §1, with “Signal was detected by Odyssey imaging system using anti-goat IRDye 800CW or anti-rabbit IRDye 680 both from Licor Biosciences. Bovine DCN was from Sigma-Aldrich, NS0-derived murine DCN was from R&D Systems. Murine DCN cDNA was generated from WAT total RNA using SuperScript kit (Invitrogen). For bacterial” for “For bacterial”, “WAT2 peptides. […] Bound peptides” for “WAT2 peptides. For adipokines binding assay, FLAG-tagged mouse resistin produced in HEK293 cells (Enzo Life Sciences), or control FLAG-BAP protein (Sigma-Aldrich) were incubated at the concentrations indicated. Bound peptides”

Experiment [5] concerns the target T2, glycosylated bovine DCN (purified, …). The experiment in a line: ELISA, protein coated (FIG. 16B).
Excerpt: as §1, with “Bovine DCN was from Sigma-Aldrich, NS0-derived murine DCN was from R&D Systems. Murine DCN cDNA was generated from WAT total RNA using SuperScript kit (Invitrogen). For bacterial” for “For bacterial”, “WAT2 peptides. […] Bound peptides” for “WAT2 peptides. For adipokines binding assay, FLAG-tagged mouse resistin produced in HEK293 cells (Enzo Life Sciences), or control FLAG-BAP protein (Sigma-Aldrich) were incubated at the concentrations indicated. Bound peptides”

Bridge positions count the residues as written; N and C are the ends. Ends that are not written are not given here.

B1: FLAG-tagged mouse resistin produced in HEK293 cells (Enzo Life Sciences) (ligand, UniProt Q99P87 21-114, looked up)
chain: SSMPLCPIDEAIDKKIKQDFNSLFPNAIKNIGLNCWTVSSRGKLASCPEGTAVLSCSCGSACGSWDIREEKVCHCQCARIDWTAARCCKLQVAS
notes: Bought protein; also called FLAG-resistin; ADSF; not shown: FLAG tag
As for B1, the “fold lower molar concentration for binding than to full-length DCN” value in experiment [1] amounted to 100 fold. Besides, the binding result (in experiment [2]; in the experiment with bovine serum albumin [3]) was “no binding” in each case.

B2: WAT7 peptide, cysteine-cyclized synthetic (CSWKYWFGEC) (peptide)
peptide: CSWKYWFGEC
modifications: disulfide 1-10
notes: Chemically synthesized (Genemed Synthesis); also called cyclic WAT7
B2: the binding result (in the experiment with bovine serum albumin [4]; in experiment [5]) was “no binding” in each case.
